Data reported in patent US9701750B2.

What was measured:
[1] = molecular target: human CD16A (FcγRIIIA) on the cell surface (human) (UniProt P08637)
[2] = molecular target: CD16B-Fc^NA1 (human); assay: SPR (BIAcore 2000), antigen immobilized
[3] = molecular target: CD16B-Fc^NA2 (human); assay: SPR (BIAcore 2000), antigen immobilized
[4] = molecular target: CD16B-Fc^SH (human); assay: SPR (BIAcore 2000), antigen immobilized
[5] = molecular target: human CD16A-Fc^48R/158F fusion protein (human); assay: SPR (BIAcore 2000), antigen immobilized
[6] = molecular target: human CD16A-Fc^48R/158V fusion protein (human); assay: SPR (BIAcore 2000), antigen immobilized
[7] = molecular target: CD16B-Fc^NA1 (human); assay: SPR (BIAcore 2000), antigen immobilized, koff/kon
[8] = molecular target: CD16B-Fc^NA2 (human); assay: SPR (BIAcore 2000), antigen immobilized, koff/kon
[9] = molecular target: CD16B-Fc^SH (human); assay: SPR (BIAcore 2000), antigen immobilized, koff/kon
[10] = molecular target: human CD16A-Fc^48R/158F fusion protein (human); assay: SPR (BIAcore 2000), antigen immobilized, koff/kon
[11] = molecular target: human CD16A-Fc^48R/158V fusion protein (human); assay: SPR (BIAcore 2000), antigen immobilized, koff/kon
[12] = molecular target: human CD16A-Fc^48R/158V fusion protein (human); assay: SPR (BIAcore 2000), CD16A-Fc immobilized, koff/kon
[13] = molecular target: human CD16A-Fc^48R/158V fusion protein (human); assay: SPR (BIAcore 2000), CD16A-Fc immobilized, 1/1 Langmuir model

redirected lysis of FcR-positive P815 cells by freshly isolated NK cells (calcein release) [1]: 65%
koff [2]: 0.000487 s⁻¹
kon [2]: 77200 M⁻¹ s⁻¹
koff [3]: 0.000478 s⁻¹
kon [3]: 75700 M⁻¹ s⁻¹
koff [4]: 0.000528 s⁻¹
kon [4]: 77900 M⁻¹ s⁻¹
koff [5]: 0.00038 s⁻¹
kon [5]: 99400 M⁻¹ s⁻¹
koff [6]: 0.000406 s⁻¹
kon [6]: 78600 M⁻¹ s⁻¹
Kd [7]: 8.91 nM
Kd [8]: 9.63 nM
Kd [9]: 11.4 nM
Kd [10]: 3.82 nM
Kd [11]: 5.17 nM
Kd [12]: 1.75 nM
koff [13]: 0.000177 s⁻¹
kon [13]: 101000 M⁻¹ s⁻¹
Substance: anti-CD16 murine monoclonal antibody A9
